Data as given in patent publication US20210046117A1.
Where two headings read alike, the source gives them in different places.

Key:
[1] = molecular target: CD19 on CD19+ Raji B cells (UniProt P15391); test: cell-based or functional assay
[2] = molecular target: CD19 on CD19+ Raji B cells (UniProt P15391); test: cell-based or functional assay; remark: listed apart in the source

Sequence of UniProt P15391 (P15391 20-556 limits assumed): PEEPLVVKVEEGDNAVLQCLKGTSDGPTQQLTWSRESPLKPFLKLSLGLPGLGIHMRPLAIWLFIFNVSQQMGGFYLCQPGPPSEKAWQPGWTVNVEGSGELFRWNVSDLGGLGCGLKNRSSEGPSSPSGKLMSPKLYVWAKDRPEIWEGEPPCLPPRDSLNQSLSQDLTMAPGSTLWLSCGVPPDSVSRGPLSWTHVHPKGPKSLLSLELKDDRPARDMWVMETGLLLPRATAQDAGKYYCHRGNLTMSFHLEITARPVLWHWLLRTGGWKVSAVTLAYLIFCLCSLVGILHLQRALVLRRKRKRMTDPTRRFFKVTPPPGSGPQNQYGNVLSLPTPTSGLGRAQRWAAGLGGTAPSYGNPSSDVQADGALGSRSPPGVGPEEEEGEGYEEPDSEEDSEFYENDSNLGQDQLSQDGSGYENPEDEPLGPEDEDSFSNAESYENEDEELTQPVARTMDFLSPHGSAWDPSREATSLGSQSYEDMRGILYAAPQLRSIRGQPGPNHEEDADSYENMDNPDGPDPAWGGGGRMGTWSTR

activated cells in the population (CD25 and CD69 activation markers, flow cytometry, 24h co-culture) [1]: 0.9 to 84.8%
activated cells in the population (CD25 and CD69 activation markers, flow cytometry, 24h co-culture) [2]: 3.9 to 12.1%
Substance: anti-CD19 CAR (anti-CD19 CAR cassette as described in WO 2012/079000) (receptor)
